Source: PMC5223167

Target: T1, PPE2 (Mycobacterium tuberculosis (BAC-Rv329 …, UniProt P9WI47))
T1 sequence: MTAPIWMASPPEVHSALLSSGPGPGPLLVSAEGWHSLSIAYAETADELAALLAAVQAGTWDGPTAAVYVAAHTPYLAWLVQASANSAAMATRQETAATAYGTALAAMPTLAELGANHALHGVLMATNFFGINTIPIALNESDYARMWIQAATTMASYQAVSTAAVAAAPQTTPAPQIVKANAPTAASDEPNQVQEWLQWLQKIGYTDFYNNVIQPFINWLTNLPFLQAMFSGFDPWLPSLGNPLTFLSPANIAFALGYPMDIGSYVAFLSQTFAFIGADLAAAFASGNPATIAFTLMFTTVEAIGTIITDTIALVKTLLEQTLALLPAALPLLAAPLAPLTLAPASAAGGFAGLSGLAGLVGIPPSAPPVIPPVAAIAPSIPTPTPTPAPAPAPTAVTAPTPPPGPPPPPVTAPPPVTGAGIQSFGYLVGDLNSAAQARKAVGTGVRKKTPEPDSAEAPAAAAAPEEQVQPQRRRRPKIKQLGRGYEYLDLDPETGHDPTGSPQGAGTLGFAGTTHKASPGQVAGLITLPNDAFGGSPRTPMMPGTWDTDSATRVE
Assay: EMSA; 20 mM HEPES (pH not stated), 0.5 mM DTT, 0.5 mM EDTA, 5% glycerol, room temperature, 30 min; […]
Conditions: protein: recombinant; tags: N-terminal His (pRSET A); label: 32P 5' end; blunt

B1: inos proximal GATA-1 element (overlaps TATA box) (dsDNA)
DNA 1: GGGGTATAAATACCTGATGGCTGCTGCCAG
DNA 2: CTGGCAGCAGCCATCAGGTATTTATACCCC
B1: binds.

B2: NF-kB consensus (dsDNA)
DNA 1: AGTTGAGGGGACTTTCCCAGGC
DNA 2: GCCTGGGAAAGTCCCCTCAACT
B2: no binding.

B3: GATA consensus (dsDNA)
DNA 1: CACTTGATAACAGAAAGTGATAACTCT
DNA 2: AGAGTTATCACTTTCTGTTATCAAGTG
B3: binds.

B4: IRF-1 consensus (dsDNA)
DNA 1: CACTGTCAATATTTCACTTTCATAATG
DNA 2: CATTATGAAAGTGAAATATTGACAGTG
B4: no binding.
